The results in this text go back to paper PMC2172978 (The Journal of Cell Biology, 2003).

The target of this assay is T1, flag–Lte1 (budding yeast, UniProt P07866 1-1435).
T1 sequence (looked up): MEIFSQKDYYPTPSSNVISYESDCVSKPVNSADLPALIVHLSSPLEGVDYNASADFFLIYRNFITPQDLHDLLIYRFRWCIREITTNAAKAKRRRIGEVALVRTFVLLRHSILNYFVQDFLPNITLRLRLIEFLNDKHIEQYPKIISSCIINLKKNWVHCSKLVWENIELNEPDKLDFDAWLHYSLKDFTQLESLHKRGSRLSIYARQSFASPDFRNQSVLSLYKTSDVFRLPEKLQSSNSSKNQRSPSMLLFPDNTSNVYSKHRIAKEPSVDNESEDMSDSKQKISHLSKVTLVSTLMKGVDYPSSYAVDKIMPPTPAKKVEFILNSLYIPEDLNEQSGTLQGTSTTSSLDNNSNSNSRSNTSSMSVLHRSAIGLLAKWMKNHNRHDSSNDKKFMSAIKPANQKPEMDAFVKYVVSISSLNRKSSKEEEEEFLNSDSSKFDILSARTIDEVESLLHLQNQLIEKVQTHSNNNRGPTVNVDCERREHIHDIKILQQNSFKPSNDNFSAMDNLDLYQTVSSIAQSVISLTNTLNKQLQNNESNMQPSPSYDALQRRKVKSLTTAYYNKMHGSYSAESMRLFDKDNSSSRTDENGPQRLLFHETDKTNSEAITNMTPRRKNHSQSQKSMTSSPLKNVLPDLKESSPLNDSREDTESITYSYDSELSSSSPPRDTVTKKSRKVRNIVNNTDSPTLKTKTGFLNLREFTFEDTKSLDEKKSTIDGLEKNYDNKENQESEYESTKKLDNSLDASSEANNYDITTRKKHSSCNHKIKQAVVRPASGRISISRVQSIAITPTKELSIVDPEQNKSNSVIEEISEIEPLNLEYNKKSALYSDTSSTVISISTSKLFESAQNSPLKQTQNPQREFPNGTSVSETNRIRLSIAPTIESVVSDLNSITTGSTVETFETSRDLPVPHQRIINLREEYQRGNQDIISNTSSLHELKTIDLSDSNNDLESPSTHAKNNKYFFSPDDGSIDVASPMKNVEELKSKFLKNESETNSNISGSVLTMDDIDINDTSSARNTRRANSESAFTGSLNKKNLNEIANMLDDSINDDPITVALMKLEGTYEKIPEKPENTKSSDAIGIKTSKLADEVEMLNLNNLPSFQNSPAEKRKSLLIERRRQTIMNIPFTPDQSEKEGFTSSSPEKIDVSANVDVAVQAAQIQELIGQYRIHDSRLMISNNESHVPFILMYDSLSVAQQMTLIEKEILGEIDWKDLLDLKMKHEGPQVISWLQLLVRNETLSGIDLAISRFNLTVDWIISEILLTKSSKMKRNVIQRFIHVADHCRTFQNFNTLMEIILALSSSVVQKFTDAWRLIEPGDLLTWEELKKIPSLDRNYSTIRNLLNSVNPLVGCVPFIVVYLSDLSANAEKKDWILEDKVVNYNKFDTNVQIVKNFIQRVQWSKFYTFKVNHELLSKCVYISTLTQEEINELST
In words: pull-down.

B1: Ras2 protein purified from the insect cells (natural protein, budding yeast, UniProt P01120 1-322, looked up)
chain: MPLNKSNIREYKLVVVGGGGVGKSALTIQLTQSHFVDEYDPTIEDSYRKQVVIDDEVSILDILDTAGQEEYSAMREQYMRNGEGFLLVYSITSKSSLDELMTYYQQILRVKDTDYVPIVVVGNKSDLENEKQVSYQDGLNMAKQMNAPFLETSAKQAINVEEAFYTLARLVRDEGGKYNKTLTENDNSKQTSQDTKGSGANSVPRNSGGHRKMSNAANGKNVNSSTTVVNARNASIESKTGLAGNQATNGKTQTDRTNIDNSTGQAGQANAQSANTVNNRVNNNSKAGQVSNAKQARKQQAAPGGNTSEASKSGSGGCCIIS
On to B1, for which the binding result is “binds”.
